Assay results from publication PMC8458794 (Protein & Cell, 2021).

B1: XG005 monoclonal antibody (IgG) (antibody, V domains shown)
VH: QVTLRESGPTLVKPKQTLTLTCTFSGFSLSTPGGGVGWIRQPPGKALEWLALIYWDDDKRYSPSLKSSLTITKDTSKNQVVLTMTNMDPVDTATYYCARLTAADTIFDCWGQGTLVTVSS
VL: QSALTQPASVSGSPGLSITISCTATSSDVGAYNYVSWYQQHPGQAPKLMIYDVSKRPSGVSNRFSGSKSANTASLTISGLQAEDEADYYCSSYTTTSVVFGGGTKLTVL
B2: XG014 monoclonal antibody (IgG) (antibody, V domains shown)
VH: EVQLVQSGAEVKKPGESLKISCKGSGYSFSNYWIGWVRHMPGKGLEWMGIIYPGDSDTRYSPSFQGQVTISVDTSISTAYLQWSSLKASDTAMYYCTRHQYGYNYGYFYYYIDVWGKGTTVTVSS
VL: QSVLTQPPSVSAAPGQKVTISCSGSSSNIGNNPVSWYRQVPGTAPKLLIYDNNKRPSGIPDRFSGSKSGASATLGITGLQTGDEADYYCGTWHTSLSSGVFGGGTKLTVL

Assays:
[1] = target: recombinant SARS-CoV-2 RBD protein (wild type) (SARS-CoV-2, UniProt P0DTC2); experiment: ELISA; details: both partners purified
[2] = target: T1, Avi-tagged SARS-CoV-2 RBD, biotinylated (Severe acute respiratory syndrome …, UniProt P0DTC2, biotin (BirA biotinylation of the Avi tag)); experiment: BLI; details: both partners purified
T1 construct: also called biotinylated RBD protein of SARS-CoV-2

[3] = target: recombinant S-ECD of SARS-CoV (Severe acute respiratory syndrome …, UniProt P59594); experiment: cell-based or functional assay

Binder	binding result [1]	Kd [2] [pM]	IC50 of neutralisation of SARS-CoV pseudovirus in Huh-7 cells [3] [µg/mL]
B1	binds	–	–
B2	–	< 1	0.016
